Patent US20050209305A1

Molecular target: Candida albicans cell surface hemoglobin receptor (Candida albicans)
Assay: cell-based or functional assay

## hemoglobin
  Renilla luciferase activity driven by the CaHMX1 promoter in C. albicans strain CAMP Ki-29, iron-sufficient medium, within 2.5 min of Hb addition: > 10 fold
